Assay results as given in the DeepSol protein solubility set.

Assay: soluble on expression in E. coli; label from the status in PepcDB or PDB records

Question: Which “soluble on expression in E. coli” value does the source give for “MGSDKIHHHHHHMPQRLYTYPPLLRGRLLQRYKRFFADIELDSGETITAHCPNTGPMTGVCQMGNLVYVSKSDNPKRKLAYTWELIEVTDNEPTWVGVNTGLPNRVVQALLEQRCLPVLGDYGEVQREVPYGENSRIDFRLTGDRPIYVEVKNTTWTAGRLALFPDTVTTRGQKHLRELTAILLEARAVMLYFINRGDCTAFAPGDSADPTYGQLLRTGIAAGLEVYPCQFQISPEGIDFLGVAPLQL” here?
Answer: The value was “not soluble”.

Question: Which “soluble on expression in E. coli” value does the source give for “MGSDKIHHHHHHMPRSPSSQYLAIESLSRYAREERESALGIIRNVLQMSDIAPGRFNAAMQAVAMHGRIALHFHPDRFDSRGLTVAEGLLQDGRYRCQFETHISSGLLSPEIGGARDHWERQFFRELTTDIAARPKYGALDLLLAPNGPAPRFGSCYFLTKPEVLSRATFCFNDSYRNPRDKGTADAFEMVMAALLTESFERRYALGEHGLAPAKLVERLVSTLGEDIVMRFERGLSGNLDHYIEAQIHGPLSLAEDMEALVADPSFRGTEIEPLLRSIAERYQIALYWHSGLCLDVEHVVRDFRGAGMPSLAQRLAIDGNVTAYAIGVAAREVSRFPTRWRARGHKTEVLSELKWLWHLLVRYGAARDERETSFMLDESAPLQENVQAEPGGNDATCVQGTCKEEGFEASVTTEGAHTADAAAAVKDNSAS” here?
Answer: The value was “not soluble”.

Question: Which “soluble on expression in E. coli” value does the source give for “MGSDKIHHHHHHMPSETIKLTAKFKLKEIPNGLDVLFSTYREIVNFLISYAYENNITSFYRLKKETYKNLRKEYPELPSHYHYTAIDMATKIYRGYRKRRGKAKGKPVFKKEVIMLDDHLFKLDFEKRIVKLSTPSGRIELEFYPAKYHEKFKGWKVGQAWLVKTPKGLFINVVFSREVEIREPENFIGVDLNENNVTLCLPKGEFIQIITHEREIRTGYFVKRRKIQKNLRVGKKREELLEKYGSRERNRVDDLYHKLANKIVELAEKYGGIALEDLTEIRDSIRYSAELNGRLHRWSFRKLQRIIEYKAKLRGIKVIFVNPAYTSTLCPICGGKLSPNGHRVLKCKCGFEADRDVVGSWNVRLKALKMWGVTVPPESHPMKKGGWKVSRIDITQITADQNGYFMRRLRRALLLQ” here?
Answer: The value was “not soluble”.

Question: With “MGSDKIHHHHHHMPSIFEKYQLKQVINASGRMTALGVSTPRPEVIDAAMAGMNQYFEMKDLVNKTGEYIAKLLEVEGATVVSCASAGLAQSVAAVLVQDSDWLLENLHVTPIENNEIVLPKGHNVNFGAPVGTMVALGGGKLVEAGYANECSAAQLAAAITPRTAAILYIKSHHCVQKSMLSVEQAAVVARTHNLPLIVDAAAEEDLQCYYRVGADLVIYSGAKAIEGPTSGLVIGKTQYVEWVKRQSAGIGRAMKVGKEGIVGLTCAIELYLRAQKESGAEMVEKMAPFIDTLNTFNGVSARVVWDSAGRDIARTEIKFDEAVTGIATGELVDALKQGEYAIYFRGYKANEGIIEADVRSVDRAQLAIVARRIGEVINQEKQA” as the sequence, how does the “soluble on expression in E. coli” value read?
Answer: The value was “not soluble”.

Question: For “MGSDKIHHHHHHMPTITAKIQIHVSDNQAESLKITTNAYRKACNWLSKHIFETKNLNQVNLNNLYYSDLRNQFRLKSQMAQSVMKTVIARYKSAKSNGHEWSLIDFKLAEYDLVWNRDYSLTKNQFSVNTLEGRLKLNYERKAMKKYFNSTWKFGTAKLVHKYKKWFLHIPMTKEYQTLDFADVNNIVGVDLGINFLATTYDSQSKTTFYNGNIVKHKRGKFKATRKQLQTRQTPSSRKKIKQIGSRENRYVTDVNHQITKALVEAYPRGTMFVLEDLTGVRSATEKVRVKNRYVSVSWAFYQFRQMLEYKAELNGQKVIVVDPKYTSQTCPKCGNIEKANRNKKLHTFKCKNCQYQSNDDRISAMNLHRKGIKHISVVTTGV”, which “soluble on expression in E. coli” value is on record?
Answer: The value was “not soluble”.

Question: Which “soluble on expression in E. coli” value does the source give for “MGSDKIHHHHHHMPTLPAYPLFREHSLLYLAHMGISKLKPSNSATTLLQLAREVLAIEAREVQALAGRLDQSFVNAVELILQCRGRVVVTGIGKSGHIGNKIAATLASTGTPAFFMHPAEASHGDLGMITRDDVVIALSNSGEADELLALLPPLKRIGTPIISISGNRHSTLSKAADIFLDAHVSQEACPLGLAPTASTTAALALGDALAVTLLDQRGFSREDFALAHPGGSIGRRLLLHVQDVMRSGDDIPAVSVSSSLKDGLLEMSRKGLGMTAVLDAADKPVGIFTDGDLRRAFEAGIDINGTRMADVMHAHPRSILPGQLAVDALALMEQYSISSLLVVDQQGNLVGALNMHDLLMAKVV” here?
Answer: The value was “not soluble”.

Question: With “MGSDKIHHHHHHMPTVHDLDTPSILIDAARAEANIARAQAHADKNGLKLRPHIKTHKLPYWAKKQVAAGAVGITCQKIGEAEVMTDAGLSDIFLPYNILGRAKLQRLKTLHGRVTLSVTSDSMETLEGLAATFTDAGHPLQVLVECDTGMGRCGVQTADQAVALARLIDKAGGLTFGGLMTYPAAGRAAEAEAWLANAKQALAASGLACERISSGGTPDMWRSGEDSVVTEYRPGTYIYLDRYQVAKGVGTLDDCALTVLATVVSHPTATRAILDSGSKALSSDTLGLKDFGELLGAPDARVTGLSEEHGTVTLSGDAKLRIGERVRVVPDHCCVVTNLFNEVNLIDGETVLETLPVAARGKMG” as the sequence, how does the “soluble on expression in E. coli” value read?
Answer: Its value is “not soluble”.

Question: For “MGSDKIHHHHHHMPYAVTLPEFTGPLDLLLRLIERAELDITTIALASVADQYLAHVRTLEEVEPRELAEFVSMAARLILIKSRALLPRSPTTPAEAGDEDAGQLVAQLELYRRFKQAAEVLRRWQDQGRSTFVRLAPPPLLPAPAPISYRITDLLHALERRRQLQLPLAQPEPIVLAPRLTVAEVAERIRARLERTAWFDFTDLLSNDPTTEEVIVSFWAMLELLKRRAIVVEQTMLFGPILIGRGTAPIVTEPADEDEL”, which “soluble on expression in E. coli” value is on record?
Answer: Its value is “not soluble”.

Question: For “MGSDKIHHHHHHMQAKTTLEQWEILQAVIDLGGYTQAANVLHRSQSSVSYQLSLLQERLGIELLTIHGRKAELTPEGENLLAQARSVIRSFHALEARAHSLKMGEQASINLVVDSTFPKDRLFHLLSTFQKQHPATRIHLTEVLRNETSAQLKARDADIYIITQREIDGCAGRWLMNVDFVAVAHSHHPLFSLPTPLSHEALSRYPCVEIVMRTPPHSQPASAESWTFTTFEAATQAVLHQVGYGWLPEARISEHITRGELHILPLQQGERRTTPLYLLAEEKGQPLGKEIIMLIELLFGRL”, which “soluble on expression in E. coli” value is on record?
Answer: The value was “not soluble”.

Question: Which “soluble on expression in E. coli” value does the source give for “MGSDKIHHHHHHMQDLVQAYKEEKNARIKERILAVKLHVVDGKSEKEVSKMLNKGYSTIKLWIGKYKKEGLDGLKDKPRSGRPRKVEEEKIKQILEDKPQKYGIQQEYWTMKTLKIALQEQGIEYKKSRLYELVHELGYNLVKPRPTNIQAEKDKWEDFKKIKKLERKALFFLDECRTVISTSIKKVLAKVGSKPVMRVNIGFSSIYVILAINAWTGEVVVSLAKRPNSESVKYFLRYFKRRVGSGRVYMVMDNYSPHKTKGTLEVCRRKGIHPVFTPPYSPELNMAEAVFKSLKNYMSNKIFYTIEDVKNCIKQFFEENKYRFNLNAITYLGLDKIEV” here?
Answer: The value was “not soluble”.

Question: Which “soluble on expression in E. coli” value does the source give for “MGSDKIHHHHHHMQDSMYSALFGALTNEHRLNNIANNLANVNTTGYKRDVLAFKDTFLSFAHDEVMEPIPNVRSKKMFPEPIHIAKPRIALAKTDFSQGSLKLTGGTLDMAVHGDGFFKVRTPDGEFYTRNGNFRQTSDGQLVTQQGWPVLGAGGDIQIPPRANLTVAENGTIYADGEEIGQVQVVTLDNLDALEKQGSNLFRLREGAEAQEVPVENPVVLQGFLETANVEVVTEMVNMIEANRQFEAYQKIMQTTDAVDKMATTQVGRGRA” here?
Answer: Its value is “not soluble”.

Question: For “MGSDKIHHHHHHMQEERSEKKIGPFKFQSNFEWKEFPQEEFEWFVKEVEKRFGLNLSSYKPQRVKRRTELLLRKYNVGYREYLNMLIKDKKYLDEFMDKMTINVTEFFRNPEKWWELRDEIIPLIAKNSLRMKFWSAGCSSGEEPYSLAILVHELNLSYKTRILATDIDIGVLRRAQEGIYEERAFVSTPKEYLEKYFEKLPDGRYRIKDSVKKIVEFKRHDLLKDPFEKNFDLIVCRNVVIYFEPEAKNELYRKFAESLKPGGFLFVGNTERIFNYKELGFEIYKPFIYRKVK”, which “soluble on expression in E. coli” value is on record?
Answer: Its value is “not soluble”.

Question: With “MGSDKIHHHHHHMQIDDFASNLRLLCSTESSVSAVCRQIGVNRQQFSKYLSGAARPSPSNMRKIAVHFGVRPAEFMLPADEFESHPSVAGKLVGPSVTHSDRDGFESAFRGQTIPLRRYLGYYLSYFLTQSWENSIICAIVRLDEVNGLIRCRSLERSIDPDDGSLYLSKYDGRVAMLGNRIFVMEYQTLARDALVETVLYPVGRGQLQYLRGTTFGITSRQRTPFTSPVVWRYLDDFPTLRDVMRKVGRYDINSAKLDPTARSILLGGHNKGTD” as the sequence, how does the “soluble on expression in E. coli” value read?
Answer: The value was “not soluble”.

Question: For “MGSDKIHHHHHHMQKNITSLSGLNWDDLKFFLEVARTRKVSSAARRLAVDYTTVSRRINSLETSLGTLLFEKSRNNGFIMTAEGQRLLGYAESIESTLHMACEQVSGSSVALSGHIRMGCTEGFGSFFITPQLSHFLDNYPSISVDILPLPHFISLSKREADIVIALERPEHGPYVCCKLCDYSLRLYATQEYLDNHAPIQRKADLSEHVFISYVDDLAFSSELLYLSNLLPNAQAQLRSTSVIAQYTAALQGRALAILPCFLAAQDPRLLPVLTEEVNITRQFWMYCREDLRKLKRITLLWDYIREVTELNKGFLLGENRAARFV”, which “soluble on expression in E. coli” value is on record?
Answer: Its value is “not soluble”.

Question: For “MGSDKIHHHHHHMQMNLGLDVGYGDVKAVYQREGILEMLKFPTAIAYAEREVGDLSAFAGGEEYEYRGRKYFVGREALVGAFSTRSFEFMKRYSPLFVFKAVKKIHRRTGELVTDVAMGLPLSHYTEANLKELVPLLQRIEVGREVLELNARFYPQGLGVLADYRLSQAGDVNARTDRDMIILDIGFNTVDVIVVERGRIVKGESDTLERHGVSKISLDLAREIKVRMQLDLSEQESKDVLRQGRIRVYGAERDLAELVRESAEKYMDWLIQEVHSKWMARIQRAEKVIIAGGGAYYLQEHIPEEYLPLVHVPDHPEYANARGFLKALDVESGK”, which “soluble on expression in E. coli” value is on record?
Answer: Its value is “not soluble”.

Question: With “MGSDKIHHHHHHMQNQKPSVSLIRATSYEREALKNSLVTLLEPFGGMAAFVKPGQRVLLKPNLLTGARPTKECTTRAELVYAVAQMVIAAGGKPFLGDSPAFGSAKGVAIANGYQPLIQELNLPIIDFHGKRYETVSENFNHLLLSKEVIEADVVINLPKVKSHAQLTLTLGVKNLFGCVPGKMKAWWHMEAGKDADRFGEMLVETARAINPDLTILDGIIGHEGNGPSGGEPRALGILAAASDIFALDRAMVEILNVPPHQVPTVAASQRLRVCPELADVEFPNLHPDLLKIYDWQLPDKLMPIDFAMPRVIKSTFKHFYIRFIKEPMSAYGKQ” as the sequence, how does the “soluble on expression in E. coli” value read?
Answer: The value was “not soluble”.

Question: Which “soluble on expression in E. coli” value does the source give for “MGSDKIHHHHHHMQQSKEERVHDVFEKISDKYDVMNSVISFQRHKAWRKETMRIMDVKPGSKALDVCCGTADWTIALAEAVGEQGKVVGLDFSENMLSVGKQKVEALQLKQVELLHGNAMELPFEDNTFDYVTIGFGLRNVPDYMHVLKEMTRVVKPGGKVICLETSQPTMIGFRQGYILYFKYIMPLFGKLFAKSYKEYSWLQESASTFPGMKELANMFEKAGLERVQVKPFTFGVAAMHLGMKPESK” here?
Answer: The value was “not soluble”.

Question: Which “soluble on expression in E. coli” value does the source give for “MGSDKIHHHHHHMQSLSSHYHQLLGLPSNWEVENVNLSMSSRQVEIRLAFTGKQGECPICGQSCLIYDHAAEQRWRHLDTMQFETILVARLPRCQCKEHGVKTVQAPWAARHSRFTLLFESFAVELLLHCANIKAASRLLRLNWHTVNQIMRRAVQRGLVRRKTETVEYLGIDEKSFKAGQHDVTTLTDLGERRVLEVVEHRTTEATKELLASLNDSQQAGVKAVSVDMWKPFIHAVQELLPKADLVHDRFHISKYLNEAVDLVRRKECRQLDKAGDKRLIGSTYVWLRNPENMGEQQQAELGKLMDAEFRTGKAWSLKNMFRAFWQLGCADAGTFFFEYWSKRIDEVGLVPLTKVKELLQRHFGNVLTWFKHPITNAVSEGLNSKIQIVKASARGFHRFESYRIRILFYCGKLNMAIGS” here?
Answer: The value was “not soluble”.
